Measured values from PMC6216019.
Where two headings read alike, the source gives them in different places. Values belong to the substance of their own block, whether it stands above or below them.

Legend:
AcrB-CFP (E. coli) [1] = biological target: AcrB-CFP (E. coli) (UniProt P31224); assay: FRET or BRET
AcrB-CFP (E. coli) [2] = biological target: AcrB-CFP (E. coli) (UniProt P31224); assay: FRET or BRET; remark: listed apart in the source
[3] = biological target: AcrB_(P223G/V225C/A777C) (E. coli) (UniProt P31224); assay: cross-linking
[4] = biological target: AcrB_(P223G)-CFP (E. coli) (UniProt P31224); assay: FRET or BRET
[5] = biological target: AcrB_(P223G)-CFP (E. coli) (UniProt P31224); assay: FRET or BRET; remark: listed apart in the source
[6] = biological target: AcrB_(V225C/A777C) (E. coli) (UniProt P31224); assay: cross-linking
AcrB_(P223G) (E. coli) = AcrB_(P223G) (E. coli) (UniProt P31224); assay: native gel or EMSA

- FRET efficiency (AcrB-CFP (E. coli) [1]): 35%
- FRET efficiency (AcrB-CFP (E. coli) [2]): 50%
Substance: AcrB-YPet (from UniProt P31224 1-1049) (natural protein)

- stoichiometry N [3]: 3
Substance: AcrB_(P223G/V225C/A777C) (from UniProt P31224 1-1049) (natural protein)

- FRET efficiency [4]: 26%
- FRET efficiency [5]: 22%
Substance: AcrB_(P223G)-YPet (from UniProt P31224 1-1049) (natural protein)

- stoichiometry N [6]: 3
Substance: AcrB_(V225C/A777C) (from UniProt P31224 1-1049) (natural protein)

- stoichiometry N (AcrB_(P223G) (E. coli)): 3
Substance: AcrB_(P223G) (from UniProt P31224 1-1049) (natural protein)
